± gives the uncertainty stated by the source.
experiment: amyloid nucleation score (Sup35N fusion, yeast selection) (log enrichment); library NNK2; higher = more nucleation; inactive = no reads after selection
Outline: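 For the nucleation score, DiMSum gave the log enrichment of output over input reads, centred on the mode score of non-aggregating sequences. Psi-negative yeast expressing Sup35N fused to peptides of 20 random codons were induced with 100 μM copper sulfate for 24 hours and grown 7 days at 30°C on medium lacking adenine and uracil. Input and output plasmid inserts were Illumina-sequenced, and sequences with under 100 input reads were excluded.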

Row | Substance | amyloid nucleation score
1 | ILISLESSPISGMKCVLQRF | 2.85 ± 0.12
2 | SYCILVLNL | 6.445 ± 0.045
3 | VLTSNTANIGTLHLINIRFH | 8.173 ± 0.026
4 | NFNMYGVFCVY | inactive
5 | KDNSTPRIGASDEIDVVLAF | 0.078 ± 0.77
6 | FFKISQSTTTEQLVYSCYSS | 3.02 ± 0.095
7 | IYTLL | -0.228 ± 1.1
8 | TLAWGSGELTTLTADEDLPS | 0.58 ± 0.19
9 | ARLSWWGS | -0.184 ± 0.29
10 | TISFELSGMGIPSLWICGSR | 0.252 ± 0.65
11 | YNSCSYEIILGDFLWLLTGQ | 0.624 ± 0.2
12 | CELEGWSVGSRVNLLILIR | -0.213 ± 1.1
13 | IFVCNMFVSYNSGNSGWCSV | 7.675 ± 0.042
14 | TFAVENHFFMEVLRRKVLIG | inactive
15 | NNSYTGPVSCNHVAGCGTGH | -0.387 ± 1.1
16 | RKVCFLAVKCGGFVCFIVRA | inactive
17 | WLTLGVYELRWMRSPNTGCL | 1.8 ± 0.23
18 | RMTEA | 2.32 ± 0.21
19 | EGNRNEVSFYVMFSAVPSGL | 9.221 ± 0.059
20 | TDLIPRQKKITLWFIS | 0.159 ± 0.53
21 | TRQKACMISKASPLGSSEYA | inactive
22 | TFSVSSYRNLP | -0.06 ± 0.79

Row | Substance | amyloid nucleation score
23 | AKRDMAKKYLSGYHGVLWYV | 0.077 ± 0.63
24 | VWRIRTAMGTG | 0.766 ± 0.19
25 | GNFVRLLV | -0.031 ± 0.37
26 | VLCFCRDFLFVLIQNPFTFP | inactive
27 | MFLYTVTNARFYEWW | 0.102 ± 0.61
28 | REVQYWARYLSVMQLCFVSS | 2.19 ± 0.13
29 | VGETLLSFCINWRVGYMFGN | -0.518 ± 0.5
30 | VGGSDSLNFIAIGKTFCVQV | 0.186 ± 0.27
31 | CGCHCVYSPYYCFLTYWCAN | -0.542 ± 0.76
32 | LVWCAISSNNKGLINVLADS | -1.47 ± 0.5
33 | DIMVERGAFIGLKAD | 5.41 ± 0.068
34 | NNYIVTW | 0.233 ± 0.74
35 | AFRMLITGPGNS | -1.07 ± 0.49
36 | YAVENTLYHVRVVTLQSISW | 0.153 ± 0.79
37 | NEWAN | -1.31 ± 0.62
38 | VWWSLSYFQAVRGQLFHQIV | -0.139 ± 0.42
39 | WNMYNRIWFLGHKLLWGSPT | -0.414 ± 0.76
40 | DVSVNRARFPREF | 1.1 ± 0.17
41 | WGHFAMVRA | 0.426 ± 0.8
42 | CDPWQGYRWLP | -0.665 ± 0.37
43 | RGLRMTRIISFFGIVGL | 8.507 ± 0.026
44 | NFLADCLDGSANAIWVHVAS | 0.57 ± 0.23

Row | Substance | amyloid nucleation score
45 | CTLLFTLSYSVS | 4.245 ± 0.037
46 | MIGSGVW | -1.07 ± 0.78
47 | HVLNWTYSTRIDAGGKSIRM | -0.631 ± 0.76
48 | LWRIVSWVECIRCTNP | 0.182 ± 0.79
49 | FCGDILSVT | 0.695 ± 0.66
50 | GTTWLTVLALVALSEISCRM | 0.384 ± 0.28
51 | WTYRCPALLFYQFYAKGYA | -0.594 ± 0.63
52 | YIVDGVGCNCHTGSIVEMSL | -0.618 ± 0.32
53 | YSVYKTLA | -1.51 ± 0.78
54 | VISKYDWFK | -0.255 ± 1.1
55 | GMLRGSK | -0.359 ± 0.39
56 | TLTKKLHIGMLYPYHTLMLR | -0.596 ± 0.76
57 | CRISQTFF | 1.82 ± 0.15
58 | RTWCPLG | 0.486 ± 0.41
59 | KVLVRHLRCAISPSF | 0.256 ± 1
60 | VNFLGWSLVGKCRFQFWTVR | inactive
61 | SVLMDYNSKWWDRMSSFIRP | -0.272 ± 0.48
62 | VYGSCSVMLGNWCSSVFKVL | 0.174 ± 1
63 | TKSGCRGIGHSSVVSS | 1.19 ± 0.37
64 | YVSDYG | 0.199 ± 0.8
65 | LACIPGGKVNSPLGWHGFRD | 0.057 ± 1.1
66 | STPIHDIFTPTLDRV | -0.08 ± 0.5

Row | Substance | amyloid nucleation score
67 | CILGENYRIQSTDAHKGVSR | -0.205 ± 0.19
68 | YMYLTCSLGSVCRFLSEHMW | -0.605 ± 0.36
69 | LFARWTFDNFSLRVVLQTRI | -0.861 ± 0.25
70 | TFVITLNGHSCQVGTITPRN | 8.012 ± 0.04
71 | YGFPDF | -1.12 ± 1.1
72 | VLTDSCKFYCELCQLNREVY | 0.443 ± 0.36
73 | RYCFT | 1.03 ± 0.38
74 | TLYDGWLVGPVERRFVIRAL | 1.08 ± 0.21
75 | QLYLWHCGFLTTDISGSNSS | -0.713 ± 0.63
76 | PMFCSLVLRI | -0.383 ± 0.41
77 | FWFMVCLIAG | -0.223 ± 0.48
78 | CAFVGKVSTARLVSSRNSFN | 5.801 ± 0.045
79 | KSLLWHLQLLAKT | 0.174 ± 0.63
80 | LFLSLKYPLSYYASTVDNLA | 0.6 ± 0.74
81 | TVRLVWSWMHTPLFGPVTCA | 0.073 ± 0.56
82 | FYWNEICFNSSKE | inactive
83 | VGYIQGFERTYL | -0.42 ± 0.76
84 | RYQGLLTPVTAGRLFICIP | -0.363 ± 1.1
85 | HGYRLSHSQPKSTSSLV | -0.083 ± 0.63
86 | YVCFQFFDTC | 8.406 ± 0.038
87 | FHIFQFVSLGFWSSEG | inactive

Source: the supplement of paper PMC12042874
